Source: patent US6653127B1, “Single-chain recombinant complexes of hepatitis C virus NS3 protease and NS4A cofactor peptide” (Schering Corporation, priority 1997, dated 2003)

T1: 5A/5B (P8P8') substrate DTEDVVCC*SMSYTWTG-K
T1 chain: DTEDVVCCSMYTWTGK

T2: His-NS31-181 (NS3 catalytic domain) (Hepatitis C virus (1b/BK strain), UniProt Q9WMX2 1027-1206)
T2 chain: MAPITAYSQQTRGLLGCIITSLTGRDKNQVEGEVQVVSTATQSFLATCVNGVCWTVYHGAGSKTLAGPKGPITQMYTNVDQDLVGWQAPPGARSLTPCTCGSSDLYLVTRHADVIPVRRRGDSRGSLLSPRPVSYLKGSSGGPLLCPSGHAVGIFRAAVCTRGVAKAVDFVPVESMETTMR


What was measured:
[1] = target: Biotin-DTEDVVAC …-pY (streptavidin-tagged peptide) (Hepatitis C virus); experiment: SPR (BIAcore); 4G10 amine-coupled to the chip, streptavidin-tagged phosphotyrosine peptide injected, regeneration with 2 M MgCl2
[2] = target: NS3 (Hepatitis C virus genotype 1b, UniProt P26663); conditions: read-out: affinity for NS3 in solution; cited from earlier work
[3] = target: T1, 5A/5B (P8P8') substrate …
[4] = test system: 5A/5B (P8P8′) substrate DTEDVVCC*SMSYTWTG-K; experiment: Proteolytic activity by 1D-HPLC (reverse-phase) with 5A/5B substrate; format: biochemical, HCV Japanese (1b/BK) strain; conditions: for Km / kcat: 5A/5B substrate, room temperature, 60 min, footnote a for His-NS31-181 + NS4A Peptide: [E] = 0.25 μM, [NS4A Peptide] = 10 μM
Procedure: Following expression and purification, newly engineered recombinant species were assayed for proteolytic activity utilizing a 1D-HPLC (reverse-phase chromatography) technique. Assays were conducted using the 5A/5B (P8P8′) substrate DTEDVVCC*SMSYTWTG-K (SEQ ID NO: 25) in 25 mM Tris-HCl pH 7.5, 150 mM NaCl, 0.5 mM EDTA, 10 mM DTT, 10% glycerol, and 0.05% lauryl maltoside. Concentration of all proteins were determined by BIORAD dye method). […] Reactions were incubated at room temperature for 60 minutes and were quenched with an equal volume of 10% phosphoric acid. Following injection, cleavage products were monitored under a linear 0-80% acetonitrile gradient in 0.1% TFA. The product P1′P8′K peak areas were automatically converted to product quantity in nanomoles by a standard curve.
The various covalent NS4A-NS3 complexes whose proteolytic efficiency has been determined according to the above method, and the results of each determination, are shown in Table 1.

[5] = Size exclusion chromatography (aggregated vs monodispersed form); format: physicochemical; conditions: for period for which the complex remains monodispersed: 4° C.
Procedure: Two hundred μl of various purified proteins were applied to a calibrated Superdex-75 HR (1 cm×30 cm) FPLC column equilibrated with 25 mM HEPES, pH 7.4, 1M NaCl and 10% glycerol and 10 mM βME at 0.5 ml/min. The column was precalibrated using Pharmacia standard calibration proteins (BSA: 67 KDa; Ovalbumin: 43 KDa; Chymotrypsinogen A: 31 KDa; Ribonuclease A: 13.7 KDa). Protein elution was monitored at 280 nm.

[6] = Solubility judged by achievable concentration of the complex; format: physicochemical
Source text: Thirteen representative embodiments of such mutant NS4A-NS3 complexes are disclosed in the Examples below. In some embodiments, the isoleucine at position 17 is mutated to lysine. One such mutant form is referred to as His-NS4A21-32-GSGS-NS33-181/I17K (SEQ ID NO: 2). In other embodiments, the same mutation is made at position 18. One such mutant form is referred to as His-NS4A21-32-GSGS-NS33-181/I18K (SEQ ID NO: 3). In yet other embodiments, the mutations are introduced at both positions. One such mutant is referred to as His-NS4A21-32-GSGS-NS33-181/I17K,I18K (SEQ ID NO: 4).
A “soluble” covalent complex as referred to herein is defined as a protein which will remain in solution after a high spin centrifugation step at 300,000×g in a standard ultracentrifuge in a buffer containing 25 mM HEPES, pH 7.6, 10% glycerol, 0.3 M NaCl, 10 mM βME.

[7] = target: T2, His-NS31-181 (NS3 catalytic domain); experiment: cell-based or functional assay

Molecule | Km [3] [µM] | kcat [3] [s⁻¹] | kcat/Km [3] [M⁻¹ s⁻¹] | kinetic properties compared with wild type [4] | dispersion state as judged by size exclusion chromatography [5] | period for which the complex remains monodispersed [5] | achievable concentration of the complex (solubility) [6] [mg/mL] | further results
Anti-phosphotyrosine monoclonal antibody 4G10 (Upstate Biotechnology Inc.) | – | – | – | – | – | – | – | % binding of tagged peptide after regeneration [1]: 100%
NS4A peptide: 13-19 residue NS4A peptide spanning the central hydrophobic domain of the full-length NS4A protein (KKGSVVIVGRIVLSGKPAIIPKK) | – | – | – | – | – | – | – | Kd [2]: 10 µM
His-NS31-181 + NS4A Peptide (non-covalent complex) (protein) chain 1: MAPITAYSQQTRGLLGCIITSLTGRDKNQVEGEVQVVSTATQSFLATCVNGVCWTVYHGAGSKTLAGPKGPITQMYTNVDQDLVGWQAPPGARSLTPCTCGSSDLYLVTRHADVIPVRRRGDSRGSLLSPRPVSYLKGSSGGPLLCPSGHAVGIFRAAVCTRGVAKAVDFVPVESMETTMR chain 2: KKGSVVIVGRIVLSGKPAIIPKK | 80 | 0.05 | 500 | – | – | – | – | –
NS31-631-NS4A1-54 (non-covalent full-length NS3 protease / NS4A complex) (protein) chain 1: MAPITAYSQQTRGLLGCIITSLTGRDKNQVEGEVQVVSTATQSFLATCVNGVCWTVYHGAGSKTLAGPKGPITQMYTNVDQDLVGWQAPPGARSLTPCTCGSSDLYLVTRHADVIPVRRRGDSRGSLLSPRPVSYLKGSSGGPLLCPSGHAVGIFRAAVCTRGVAKAVDFVPVESMETTMRSPVFTDNSSPPAVPQSFQVAHLHAPTGSGKSTKVPAAYAAQGYKVLVLNPSVAATLGFGAYMSKAHGIDPNIRTGVRTITTGAPVTYSTYGKFLADGGCSGGAYDIIICDECHSTDSTTILGIGTVLDQAETAGARLVVLATATPPGSVTVPHPNIEEVALSNTGEIPFYGKAIPIEAIRGGRHLIFCHSKKKCDELAAKLSGLGINAVAYYRGLDVSVIPTIGDVVVVATDALMTGYTGDFDSVIDCNTCVTQTVDFSLDPTFTIETTTVPQDAVSRSQRRGRTGRGRRGIYRFVTPGERPSGMFDSSVLCECYDAGCAWYELTPAETSVRLRAYLNTPGLPVCQDHLEFWESVFTGLTHIDAHFLSQTKQAGDNFPYLVAYQATVCARAQAPPPSWDQMWKCLIRLKPTLHGPTPLLYRLGAVQNEVTLTHPITKYIMACMSADLEVVT chain 2: STWVLVGGVLAALAAYCLTTGSVVIVGRIILSGRPAIVPDRELLYQEFDEMEEC | 20 | 0.167 | 8000 | – | – | – | – | –
His-NS4A21-32-GSGS-NS33-181/I17K (protein) MGSSHHHHHHSSGLVPRGSHMGSVVIVGRIILSGSGSITAYSQQTRGLLGCKITSLTGRDKNQVEGEVQVVSTATQSFLATCVNGVCWTVYHGAGSKTLAGPKGPITQMYTNVDQDLVGWQAPPGARSLTPCTCGSSDLYLVTRHADVIPVRRRGDSRGSLLSPRPVSYLKGSSGGPLLCPSGHAVGIFRAAVCTRGVAKAVDFVPVESMETTMRS | 20 | 0.267 | 14000 | identical to those of the wild type | monodispersed | about one week | 17 to 20 | Km [4]: 20 ± 2 µM; kcat [4]: 0.267 ± 0.05 s⁻¹
His-NS4A21-32-GSGS-NS33-181/I17K,I18K (protein) MGSSHHHHHHSSGLVPRGSHMGSVVIVGRIILSGSGSITAYSQQTRGLLGCKKTSLTGRDKNQVEGEVQVVSTATQSFLATCVNGVCWTVYHGAGSKTLAGPKGPITQMYTNVDQDLVGWQAPPGARSLTPCTCGSSDLYLVTRHADVIPVRRRGDSRGSLLSPRPVSYLKGSSGGPLLCPSGHAVGIFRAAVCTRGVAKAVDFVPVESMETTMRS | – | – | – | identical to those of the wild type | monodispersed | about one week | 17 to 20 | –
His-NS4A21-32-GSGS-NS33-181 (protein) MGSSHHHHHHSSGLVPRGSHMGSVVIVGRIILSGSGSITAYSQQTRGLLGCIITSLTGRDKNQVEGEVQVVSTATQSFLATCVNGVCWTVYHGAGSKTLAGPKGPITQMYTNVDQDLVGWQAPPGARSLTPCTCGSSDLYLVTRHADVIPVRRRGDSRGSLLSPRPVSYLKGSSGGPLLCPSGHAVGIFRAAVCTRGVAKAVDFVPVESMETTMRS | 19 | 0.15 | 8000 | – | – | – | – | –
His-NS4A21-32-GSGS-NS33-181/I18K (protein) MGSSHHHHHHSSGLVPRGSHMGSVVIVGRIILSGSGSITAYSQQTRGLLGCIKTSLTGRDKNQVEGEVQVVSTATQSFLATCVNGVCWTVYHGAGSKTLAGPKGPITQMYTNVDQDLVGWQAPPGARSLTPCTCGSSDLYLVTRHADVIPVRRRGDSRGSLLSPRPVSYLKGSSGGPLLCPSGHAVGIFRAAVCTRGVAKAVDFVPVESMETTMRS | 22 | 0.167 | 8000 | identical to those of the wild type | monodispersed | about one week | 17 to 20 | Km [4]: 22 ± 2 µM; kcat [4]: 0.167 ± 0.033 s⁻¹
KKGSVVIVGRIVLSGKPAIIPKK [4A peptide KKGSVVIVGRIVLSGKPAIIPKK] | – | – | – | – | – | – | – | catalytic activity relative to full-length NS31-631-NS4A1-54 [7]: 8 fold lower
